# Reference: the domain aggregation screens of Martell et al. (2025)
# Assay: soluble fraction after stress (log2 fold change); higher = more stays soluble; pooled small domains, quantitative proteomics
# Conditions: stress: 75 degC
# 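Note: 20 min heating vs room temperature control held 20 min.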
row,Sequence,soluble fraction (log2)
1,HMGDPEYFKKQLGDFMDRFNITSEDIKNLSIAGAINRMMNNAEGEDKTVLSKLLETVNKSGVGNLPAKTI,-0.0106
2,HMQQELDAFKLLITVSGVGPKAAMAVLSVLPPDRLSIAVSSGDVKSIQSAQGVGKKTAERIVLELKDKM,-0.906
3,HMNSKMTYSELITSMENKEVESVKISSSGDVASVKLKNSKTEKEVKIPSLDSFMTYTEQYLKTGEITLEE,0.0529
4,HMLNDTGAIRAAVEEVLAANEKSVNEYKGGKTQAFQYLIGQSMRALRGKAPAQEVTKLLKELLG,-0.564
5,HMDEFEEGVITYFNSEKGFGFIRESKTKQSVFVHSKQLSSPVQLNDKVKFIVNKGLKGLEATEVSVI,-0.818
6,HMGEWHQMLRSWGETELKNGRQNILDEAVPAFERAMIETALAHTSGRKKDAALLLGWGRNTLTRKLQEHSI,-0.169
7,HMIKEGDLVFIWNPKKGDSFLIKVQPGQSQGTHFGQIKHSEIMEHNYGEGIRTPKGQVYYLLRPTLGEFTR,-1.4
8,HMGDPYAILGLLPGASMEDVRHAWRRQAAENHPDRMLQRGAPPEFVEIAREKTAAINAAYARIREELSI,-0.433
9,HMDSVEYRVITGDDVNFRKGPSTDYASLGKLNKGYKVEYISETNSWSKVKYNGQTGYVYSKYVAQT,-0.155
10,HMTSVQDLLRNGDRVGYQNGSTVKYWLEEMGFHKKDLLGYVTVEEYAEALQRGSGNGGVSAIVD,-0.811
11,HMVLGSSVAMGQKIGDSDLTWVEVPLSSAFDRFLSEPEWRGSSDLVAARLLEAGVFLTEDDVVE,0.0533
12,HMQERTVVKGVVVQVSRDEAYVDIGYKQEIPVSKRDLAVPAPDDARDVVKVGDEIDVYIKSLGGDNGG,0.109
13,HMGTVVKRNALVHAWTEFNGGRASTKLLALGPGKVGEWIELENPQSGRKLRGEVQVDGSVRLG,0.0593
14,HMDAPLIIAETRVDVPDATVSDAVMMLDLRNTNALLFKNSGSGVLNMVYRRGDGTIGWGEPQ,-0.011
15,HMLGERIKQIRKQKKMTQTDVATGIITKSMLSMIENGKATPSLPALQAIARRLQVTVEELML,-2.55
16,HMSLNNAHNTIFPRIIELMEMKQLENVLLIGGGIIPRKDIESLESSGVTKLYGPGTPVKETIEFITNWVK,-0.216

row,Sequence,soluble fraction (log2)
1,HMNIEANLEDILRRAMPSAAKLILENSLNINKIIGTGKEGRITKGDVLLYLKDKNLILENILN,-0.079
2,HMLGKEVVRAYNISYAIDDKGSLQGDLTAALTGLIPLSKPPVLDQRNRSLYVTATPEQHKDVAALLAKL,-0.238
3,HMDKKIVGVNAGKVWQALNEVTEISIVELAEKLNLSVESTALAAGWLAREDQISIERKNGTIELQRKN,-0.91
4,HMKSYAQIAEILSGQQPNTSRKEGSNLAVHADWIDALIAKYGTALRPEEANEVVKKEIGIVFSHVLEN,-0.412
5,HMRSSAATMFGRIALKNKLVDEATLKKVMSELPAGADLGAVLVKQGLISEQHAEAIQKKITAHMKSAP,-0.114
6,HMQHQSGLKSGEFEAISQQLQALLKENPLSLQEIKDKMQVTENHLIKVVSYLVSEEIIRQENGYLK,-0.976
7,HMNKSGVVLIRVTVDASGRVTSAAYEPKGSTTSDVELVAEARKAALRTRFTESRTVIEGGVITYIFKL,-2.59
8,HMTDRKRDAIVQAAIGEFREHGFNGTSMDRVAAAADVSKRTVYNHFPSKEELFEAILLLMWE,-1.93
9,HMNFDLDSFKQRMTLDGLYFGNEKQDVIALNNLSERYQLTWFDVYQLAKETSSNHKILPKRILVKLQQ,-2.09
10,HMTVGENTYELIKKDIIFGVLPPLKKLKLQELKKIYNASVSTLREILSRLTGDGFVFSEEQKGFYVSPV,0.0263
11,HMWGQDVLFTIDKKEFKGKLLEQSDKHTTFLPDGQKTPQKIPNRLIKEIHLGSNKIIDFGNDFLI,-0.19
12,HMEDELVMERFDINELVKSVVNANELRATQKNLSITYDILDTPLYVWADEYKVEEVVTNYLS,0.00277
13,HMSEKRLHLVVDESDVNTRIDKYIADELDGYSRSFIQKLIKDNNVLVNGRAVKPNYNIGISDNIDIVLPKL,0.0186
14,HMDIDNDIIENILVMGVTKAIAINLSNEFERHRIIANIEYAKEKSKNSEIKNISAFTVEAIRQDYANS,-1.34
15,HMFDLATVKRVAEEAGMKFTIHPVELRAAHPNTAVLTLKSKAGRILVLKAASVGGGRIRVTEIDGVPAD,-0.335
